{"source": "patent US20260216374", "test_system": "Human POU5F1B (HA-tagged, overexpressed in SW480 cells)"}
{"substance": "ZDHHC-17 palmitoyl transferase", "values": [{"measurement": "DRM association of POU5F1B upon ZDHHC-17 knockdown", "result": "POU5F1B dissociates from DRMs upon ZDHHC-17 knockdown"}]}
